{"source": "patent US20250269018A1", "about": "“COMBINED CANCER THERAPY WITH AN EPITHELIAL CELL ADHESION MOLECULE (EPCAM) INHIBITOR AND A HEPATOCYTE GROWTH FACTOR RECEPTOR (HGFR) INHIBITOR” (ACADEMIA SINICA, priority 2021, published 2025)", "molecules": {"B1": {"name": "EpAb2-6: anti-EpCAM neutralizing monoclonal antibody targeting EpEX; VH SEQ ID NO: 15, VL SEQ ID NO: 16 (antibody, listed as Homo sapiens, V domains shown)", "VH": "VKLQESGPELKKPGETVKISCKASGYTFTDYSMHWVKQAPGKGLKWMGWINTETGEPTYADDFKGRFAFSLETSASTAYLQINNLKNEDTATYFCARTAVYWGQGTTVTVSS", "VL": "DIQMTQSPSSLSASLGERVSLTCRASQEISVSLSWLQQEPDGTIKRLIYATSTLDSGVPKRFSGSRSGSDYSLTISSLESEDFVDYYCLQYASYPWTFGGGTKLEIKRADAAPTVS"}}, "key": {"HT29 cells": {"test_system": "HT29 cells", "assay": "Cell growth by WST-1 assay, HT29", "type": "cell-based, human", "conditions": "50 nM EpEX and SU 10 μM, FIG. 2D", "method": "(§1) FIGS. 2A to 2K. EpEX promotes tumor progression via HGFR signaling. (FIG. 2A) WT or EpCAM knockout (KO) HCT116 and HT29 cells treated with HGF (0.5 nM) for 15 min. The phosphorylation of HGFR, AKT, and ERK was examined by Western blotting. (FIG. 2B) WT or KO HCT116 and HT29 cells were treated with HGF (0.5 nM) with 2% FBS for the indicated times. Cell growth was examined by the WST-1 assay. (FIG. 2C) Starved HCT116 cells were treated with HGFR inhibitor SU11274 (SU, 10 μM) for 1 h then treated with 50 nM of EpEX-His for 15 min. The levels of phosphorylated HGFR, EGFR, AKT, and ERK were examined by Western blotting. HCT116 and HT29 cells were treated with 50 nM EpEX and SU (10 μM). (FIG. 2D) Cell growth was examined by WST-1 assay after treatment for indicated time. (FIG. 2E) HCT116 cells were treated with shLuc or HGFR shRNA then treated with 50 nM of EpEX-His for 15 min. The levels of phosphorylated HGFR, EGFR, ERK, and AKT were examined in HGFR knockdown HCT116 cells by Western blotting. (FIG. 2F) The levels of phosphorylated ADAM17 and presenilin 2 were examined by Western blotting. […]\n(§2) Cell viability was assayed by measuring mitochondrial dehydrogenase activity with the WST-1 (4-[3-(4-lodophenyl)-2-(4-nitrophenyl)-2H-5-tetrazolio]-1, 3-benzene disulfonate) assay. […] Following the incubation, absorbance of each well was detected at 450 nm using a spectrophotometric microplate reader."}, "HCT116 cells": {"test_system": "HCT116 cells", "assay": "Cell growth by WST-1 assay, HCT116", "type": "cell-based, human", "conditions": "50 nM EpEX and SU 10 μM, FIG. 2D", "method": "as §1, §2"}, "HCT116-Luc cells": {"test_system": "HCT116-Luc cells", "assay": "Orthotopic animal model, HCT116-Luc", "conditions": "EpAb2-6 15 mg/kg, crizotinib 20 mg/kg, FIG. 9D, 9E", "procedure": "(FIG. 9C) Timeline of the experiment to evaluate EpAb2-6 and/or crizotinib in the in orthotopic animal models. (FIG. 9D) NOD/SCID mice received orthotopic implantation of HCT116-Luc cells and then were treated with control IgG (normal mouse IgG, NMIgG), crizotinib, EpAb2-6, or crizotinib combined with EpAb2-6 starting at 3 days after tumor inoculation (n=5). Tumor growth was monitored by examining bioluminescence with the IVIS 200 Imaging System. (FIG. 9E) HCT116-Luc tumor cells monitored by bioluminescence quantification. […] (FIG. 9H) NOD/SCID mice were orthotopically implanted with HT29-Luc cells and then treated with control IgG, crizotinib, EpAb2-6, or crizotinib combined with EpAb2-6 starting at 3 days after tumor inoculation (n=5). Tumor growth was monitored by examining bioluminescence with an IVIS 200 Imaging System. (FIG. 9I) HT29-Luc tumor cells monitored by bioluminescence quantification.\nOrthotopic tumor models were created as previously reported (Chen et al., 2020). Briefly, NSCID mice were used for orthotopic implantation of HCT116 cells previously infected with Lenti-luc virus (lentivirus containing luciferase gene). […] Tumor development was monitored by bioluminescence imaging. […] Tumor progression was monitored by quantification of bioluminescence. Mouse survival was also monitored."}, "EpEX binding to HGFR": {"target": "T1, EpEX binding to HGFR (Homo sapiens, UniProt P16422)", "T1 construct": "the soluble extracellular domain of EpCAM (EpEX); His; made in house; host or cells: Expi293", "T1 sequence (P16422 24-265 limits assumed)": "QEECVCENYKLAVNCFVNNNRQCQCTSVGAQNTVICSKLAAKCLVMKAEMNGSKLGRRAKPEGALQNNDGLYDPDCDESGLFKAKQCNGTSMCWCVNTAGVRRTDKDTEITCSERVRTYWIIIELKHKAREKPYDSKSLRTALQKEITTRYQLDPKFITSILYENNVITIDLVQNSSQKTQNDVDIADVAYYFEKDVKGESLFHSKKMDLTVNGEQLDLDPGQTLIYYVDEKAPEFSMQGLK", "assay": "ELISA of EpEX-His binding to HGFR-Fc-coated plates", "conditions": "EpEX-His 2 μg/ml with 1 μg antibody; HGFR-Fc 1 μg/ml coated; FIG. 6F", "method": "FIGS. 6A to 6J. EpAb2-6 inhibits EpCAM and HGFR signaling and promotes active β-catenin and Snail protein degradation via activating GSK3β. (FIG. 6A) HCT116 cells were treated with 10 μg/ml control IgG (normal mouse IgG, NMIgG) or mouse EpAb2-6 (EpAb2-6) for 16 h, followed by treatment with EpEX-His (50 nM) for 15 min. Levels of phosphorylated HGFR, AKT, FAK, GSK3β, ERK, ADAM17, and presenilin 2 were examined by Western blotting. (FIG. 6B) HCT116 cells were treated with 10 μg/ml control IgG or mouse EpAb2-6 for 16 h, followed by treatment without or with HGF (0.5 nM) for 15 min. Levels of phosphorylated HGFR, AKT, and ERK were examined by Western blotting. HCT116 cells were treated with mouse EpAb2-6 (10 μg/ml) and HGF (0.5 nM). […] (FIG. 6D) Cell invasion was assessed by a Transwell assay with matrigel after 24 h. […] (FIG. 6F) EpEX-His (2 μg/ml) co-treated with 1 μg IgG or EpAb2-6 was added to HGFR-Fc-coated (1 μg/ml) ELISA plates and detected by TMB colorimetric peroxidase assay. (FIG. 6G) EMT associated protein levels were detected by Western blotting in HCT116 cells treated with NMIgG or EpAb2-6 for 24 h. (FIG. 6H) Protein expression was analyzed by Western blotting in HCT116 cells after treatment with EpAb2-6 and 2 μM GSK3β inhibitor (BIO) for 24 h. Quantification of the normalized protein expression in the bottom panel. […]"}, "[1]": {"test_system": "GSK3β, active β-catenin and Snail", "assay": "Western blotting of GSK3β, active β-catenin, Snail and EMT proteins in HCT116 cells", "type": "cell-based, human"}}}
{"molecule": "Cc1[nH]c(C=C2C(=O)Nc3ccc(S(=O)(=O)N(C)c4cccc(Cl)c4)cc32)c(C)c1C(=O)N1CCN(C)CC1", "note": "(stereo in doubt) [SU11274, (3Z)-N-(3-Chlorophenyl)-3-({3,5-dimethyl-4-[(4-methylpiperazin-1-yl)carbonyl]-1H-pyrrol-2-yl}methylene)-N-methyl-2-oxo-2,3-dihydro-1H-indole-5-sulfonamide]", "values": [{"measurement": "EpEX-induced increases in cell viability and proliferation", "setting": "HT29 cells", "result": "abolished the EpEX-induced increases in cell viability and proliferation"}, {"measurement": "EpEX-induced increases in cell viability and proliferation", "setting": "HCT116 cells", "result": "abolished the EpEX-induced increases in cell viability and proliferation"}]}
{"molecule": "B1", "values": [{"measurement": "bioluminescence intensities", "setting": "HCT116-Luc cells", "result": "significantly decreased compared to the control IgG or crizotinib alone groups"}, {"measurement": "EpEX binding to HGFR", "setting": "EpEX binding to HGFR", "result": "inhibit EpEX binding to HGFR"}, {"measurement": "Active β-catenin and Snail steady-state protein levels", "setting": "[1]; 10 μM MG132 and EpAb2-6 for 6 h, FIG. 6I", "result": "reduced"}, {"measurement": "activating phosphorylation of GSK3β at Y216 (active GSK3β)", "setting": "[1]; 24 h, FIG. 6H", "result": "increased activating phosphorylation of the protein at Y216"}, {"measurement": "suppressive phosphorylation of GSK3β at S9 (inactive GSK3β)", "setting": "[1]; 24 h, FIG. 6H", "result": "decreased suppressive phosphorylation of GSK3β at S9"}, {"measurement": "levels of E-cadherin", "setting": "[1]; 24 h, vs control IgG, FIG. 6G", "result": "increased the levels of E-cadherin"}, {"measurement": "levels of Snail and the active β-catenin", "setting": "[1]; 24 h, vs control IgG, FIG. 6G", "result": "decreasing Snail and the active β-catenin"}]}
